PMC2927733
Several values for one entry are separate records, joined by “and”; a condition that tells them apart may be missing. Identical values can stand only once.

Columns and labels:
[1] = target: PccB D422F (Streptomyces coelicolor); assay: SEC
[2] = target: PccB D422A (Streptomyces coelicolor); assay: crystal structure
[3] = target: PccB N80A (Streptomyces coelicolor); assay: SEC
[4] = target: PccB D422V (Streptomyces coelicolor); assay: SEC
[5] = target: PccB D422V (Streptomyces coelicolor); assay: crystal structure
[6] = target: PccB D422L (Streptomyces coelicolor); assay: SEC
[7] = target: PccB D422L (Streptomyces coelicolor); assay: crystal structure
[8] = target: wild type PccB, β subunit of propionyl-CoA carboxylase (PCC) of Streptomyces coelicolor (Streptomyces coelicolor); assay: SEC
[9] = target: PccB D422N (Streptomyces coelicolor); assay: SEC
[10] = target: PccB D422N (Streptomyces coelicolor); assay: crystal structure
[11] = target: PccB R456A (Streptomyces coelicolor); assay: SEC
[12] = target: PccB D422Y (Streptomyces coelicolor); assay: SEC
[13] = target: PccB R456A/R457A (Streptomyces coelicolor); assay: SEC
[14] = target: PccB D422E (Streptomyces coelicolor); assay: SEC
[15] = target: PccB D422I (Streptomyces coelicolor); assay: SEC
[16] = target: PccB D422Q (Streptomyces coelicolor); assay: SEC
[17] = target: PccB D422C (Streptomyces coelicolor); assay: SEC
[18] = target: PccB D422C (Streptomyces coelicolor); assay: crystal structure

**Q.** How did the stoichiometry N [1] turn out when PccB D422F (enzyme) was run?
**A.** Its stoichiometry N is 2 and 3.

**Q.** PccB D422A (enzyme) was tested. Which stoichiometry N [2] did it give?
**A.** Its stoichiometry N is 6.

**Q.** Which ratio of dimer to hexamer (dimer:hexamer) [3] does the source give for PccB N80A (enzyme) here?
**A.** The ratio of dimer to hexamer (dimer:hexamer) was 2.

**Q.** And the stoichiometry N [3]?
**A.** The stoichiometry N was 2 and 6.

**Q.** For PccB D422V (enzyme), which stoichiometry N [4] is on record?
**A.** Its stoichiometry N is 6.

**Q.** What about the stoichiometry N [5] of the same substance?
**A.** Its stoichiometry N is 6.

**Q.** With PccB D422L (enzyme) as the substance, how does the stoichiometry N [6] read?
**A.** Its stoichiometry N is 6.

**Q.** And the stoichiometry N [7]?
**A.** Its stoichiometry N is 6.

**Q.** With “wild type PccB, β subunit of propionyl-CoA carboxylase (PCC) of Streptomyces coelicolor (enzyme)” as the substance, how does the stoichiometry N [8] read?
**A.** Its stoichiometry N is 6.

**Q.** Which results are given for PccB D422N (enzyme)?
**A.** stoichiometry N [9]: 6; stoichiometry N [10]: 6

**Q.** How did the ratio of dimer to hexamer (dimer:hexamer) [11] turn out when PccB R456A (enzyme) was run?
**A.** Its ratio of dimer to hexamer (dimer:hexamer) is 2.2.

**Q.** What about the stoichiometry N [11] of the same substance?
**A.** The stoichiometry N was 2 and 6.

**Q.** For PccB D422Y (enzyme), which stoichiometry N [12] is on record?
**A.** Its stoichiometry N is 6.

**Q.** With PccB R456A/R457A (enzyme) as the substance, how does the ratio of dimer to hexamer (dimer:hexamer) [13] read?
**A.** Its ratio of dimer to hexamer (dimer:hexamer) is 2.9.

**Q.** What about the stoichiometry N [13] of the same substance?
**A.** The stoichiometry N was 2 and 6.

**Q.** With PccB D422E (enzyme) as the substance, how does the stoichiometry N [14] read?
**A.** The stoichiometry N was 6.

**Q.** Which stoichiometry N [15] does the source give for PccB D422I (enzyme) here?
**A.** Its stoichiometry N is 6.

**Q.** How did the stoichiometry N [16] turn out when PccB D422Q (enzyme) was run?
**A.** Its stoichiometry N is 2 and 3.

**Q.** Which results are given for PccB D422C (enzyme)?
**A.** stoichiometry N [17]: 6; stoichiometry N [18]: 6
